Source: patent US20220306744A1 (CRESCENDO BIOLOGICS, published 2022)
Values belong to the binder of their own block, whether it stands above or below them.

Columns and labels:
[1] = molecular target: T1, human PD-1 expressed on cells (CHO TREX human PD1 cell line, full-length human PD-1 sequence) (human, UniProt Q15116 21-288); assay: flow cytometry, PHA-stimulated human CD4+ T cells, Donor 1
T1 construct: Also used for human PD-1 on Jurkat reporter cells, on PathHunter cells and on PHA-stimulated human CD4+ T cells; also called CHO human PD1 cells; CHO human PD-1 cells
T1 sequence (Q15116 21-288): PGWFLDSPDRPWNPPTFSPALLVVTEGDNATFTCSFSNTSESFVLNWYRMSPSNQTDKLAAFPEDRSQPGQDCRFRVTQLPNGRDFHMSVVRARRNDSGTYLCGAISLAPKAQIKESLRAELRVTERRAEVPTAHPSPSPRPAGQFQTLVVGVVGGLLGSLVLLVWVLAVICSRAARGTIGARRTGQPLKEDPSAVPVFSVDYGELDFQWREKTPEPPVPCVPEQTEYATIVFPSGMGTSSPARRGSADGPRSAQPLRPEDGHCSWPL
Procedure: (§1) Binding of monovalent single domain antibodies and multivalent binding agents to T cells was measured using flow cytometry. Peripheral blood mononuclear cells (PBMCs) were isolated from human blood by density gradient centrifugation then CD4+ T cells purified using a negative selection isolation kit according to the manufacturer's protocol (Miltenyi Biotech cat no 130-096-533). T-cells were stimulated with 2.5 μg/ml PHA for 3 days in RPMI media supplemented with 10% FBS, 2 mM Glutamine, 1× Pen/Strep. Cells were transferred into 96 well plates (75000 per well), blocked for 10 mins with PBS/1% BSA, then incubated with serially diluted VH in staining buffer (PBS/1% BSA) for 1 hour at 4° C. Cells were washed with staining buffer by centrifugation then incubated with 10 μg/ml biotinylated Anti His antibody for 40 mins at 4° C. Cells were washed again then stained with Streptavidin Alexa Fluor-488 (10 μg/ml) and 1:5000 diluted Live Dead near IR stain (Molecular Probes cat no. L10119) for 30 mins at 4° C. After further washing cells were fixed and fluorescence measured by flow cytometry.

[2] = molecular target: T1, human PD-1 expressed on cells (CHO TREX …); assay: FMAT binding to CHO human PD-1 cells
[3] = molecular target: T1, human PD-1 expressed on cells (CHO TREX …); assay: FMAT: inhibition of PDL-2 (100 pM) binding to CHO human PD-1 cells
Procedure: (§2) Purified VH were serially diluted in FMAT assay buffer and tested for binding to CHO human PD-1 cells as described above and for inhibition of human PD-L1/PD-L2 binding to CHO human PD-1 cells. All reagents and serially diluted VH were prepared in FMAT assay buffer. VH, buffer (total binding controls) or excess competitor (non-specific binding control) were incubated with 400 pM human Fc tagged human PD-L1 or 100 pM PDL-2, 4 nM anti human Fc-Alexa Fluor-488 and 2000 per well CHO human PD-1 DRAQ5 stained cells in a 384 well black clear-bottomed assay plates. Plates were incubated for 2 hours at room temperature then fluorescence measured in the FL2 (502 nm-537 nm) and FL5 (677-800 nm) channels on the Mirrorball plate reader (TTP) following excitation at 488 nm and 640 nm. Data was expressed as a % of the total binding control (i.e. % control) after subtraction of the background signal determined from the non-specific binding control wells. The results are shown in FIG. 5 and in Tables 8 and 9 below.

[4] = molecular target: T2, mouse PD-1 protein (R&D Systems cat no. 1021-PD) (mouse, UniProt Q02242 25-167); assay: HTRF binding assay, 2 nM mouse PD1
T2 construct: Bought protein
T2 sequence (looked up): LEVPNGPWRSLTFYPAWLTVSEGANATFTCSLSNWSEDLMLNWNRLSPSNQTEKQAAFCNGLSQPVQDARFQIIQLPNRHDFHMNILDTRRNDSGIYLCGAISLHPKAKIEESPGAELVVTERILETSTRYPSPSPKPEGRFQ
Procedure: Purified VH were tested for their ability to bind to human PD1 (R&D Systems cat no. 1086-PD), cynomolgus PD-1 (Acro Biosystems cat no. PD-1-C5254) and mouse PD1 (R&D Systems cat no. 1021-PD) in an HTRF Binding assay format. All reagents and serially diluted VH were prepared in assay buffer containing PBS, 0.1% BSA and 0.4M Potassium Fluoride. Samples or assay buffer (non-specific binding) were incubated with 2 nM human/cynomolgus or mouse PD1, 1 nM Anti human-Fc Cryptate PAb (Cisbio cat. no. 61HFCKLB) and 30 nM anti His-D2 (CisBio cat no 61HISDLA) in black 384-shallow well assay plates for a minimum of 3 hours at room temperature. Time-resolved fluorescent emission at 620 nm and 665 nm was measured following excitation at 337 nm on the BMG PHERAstar plate reader. The HTRF ratio were calculated ((665 nm emission/620 nm emission)*10000) and the data corrected for (non-specific binding) to give the specific binding signal.

[5] = molecular target: T1, human PD-1 expressed on cells (CHO TREX …); assay: FMAT: inhibition of human Fc tagged human PD-L1 (400 pM) binding to CHO human PD-1 cells
Procedure: as §2

[6] = molecular target: T1, human PD-1 expressed on cells (CHO TREX …); assay: flow cytometry, PHA-stimulated human CD4+ T cells, Donor 4
Procedure: as §1

[7] = molecular target: T3, recombinant human PD-1 Fc chimera (human, UniProt Q15116 25-167); assay: SPR Biacore T200, single cycle kinetics, human PD-1-hu Fc amine coupled to CM5, 1:1 model
T3 construct: Bought protein (R&D 1086-PD in the HTRF assay); also called human PD-1-hu Fc; huPD-1Fc; not shown: human Fc
T3 sequence (Q15116 25-167 limits assumed, stated change not applied): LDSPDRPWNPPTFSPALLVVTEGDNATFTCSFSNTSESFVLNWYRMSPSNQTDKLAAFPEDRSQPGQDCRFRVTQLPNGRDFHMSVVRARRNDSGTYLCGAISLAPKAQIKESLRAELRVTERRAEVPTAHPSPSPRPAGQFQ
Procedure: Binding kinetics of certain humabodies binding to human PD-1-hu Fc were measured by surface plasmon resonance (SPR) technology using Biacore T200 instrument (GE Healthcare). Recombinant human PD-1-hu Fc was immobilized by standard amine coupling to CM5 sensors chip (GE Healthcare) using 0.1 mg/ml solution of antigen in 10 mM sodium acetate at pH 5.5. For the reference flow cell, a blank immobilisation was carried out. Single cycle kinetics assays were used to study the interaction, a five point, three-fold dilution series of each Humabody® VH was made with a top concentration of 30 nM. The binding kinetics were followed by flowing the Humabody® VH over the chip surface in HBS EP+ buffer at a flow rate of 30 μl/min. The contact time for each of the association steps was 180 seconds and the dissociation step was varied between 1200-3600 seconds. The data was fitted to a 1:1 binding model after double reference subtraction using the Biacore T200 Evaluation software.

[8] = molecular target: T1, human PD-1 expressed on cells (CHO TREX …); assay: flow cytometry, PHA-stimulated human CD4+ T cells, Donor 3
Procedure: as §1

EC50 [1]: 0.5 nM
EC50 [2]: 0.2 nM
IC50 [3]: 1.9 nM
binding result [4]: no binding
IC50 [5]: 1.45 nM
EC50 [6]: 0.5 nM
Kd [7]: 0.012 nM
koff [7]: 6.5e-06 s⁻¹
kon [7]: 510000 M⁻¹ s⁻¹
EC50 [8]: 0.6 nM
B1: 1.92b-4GS-1.39a (other)
chain: EVQLVESGGGLVKPGGSLRLSCAASGFTFSDESMTWMRQAPGKGLEWVSYISSGGGVKFYADSVKGRFTISRDNAKNSLYLQMNSLRAEDTAVYYCAREAPLRLGESPHDAFDISGQGTMVTVSSGGGGSGGGGSGGGGSGGGGSEVQLVESGGGLVQPGRSLRLSCAASGFTFDDYALHWVRQAPGKDLEWVSGISWNGGSYGYADSVKGRFTISRDNAKNSLYLQMNSLRAEDTALYYCVREKGPGLTGSTADYYGLDAWGQGTMVTVSS
notes: Biparatopic VH-linker-VH; built from its parts here because it is not clear whether 1112 is the protein or the nucleic acid

EC50 [1]: 0.3 nM
EC50 [2]: 0.2 nM
IC50 [3]: 1.6 nM
binding result [4]: no binding
IC50 [5]: 1.2 nM
EC50 [6]: 0.3 nM
Kd [7]: 0.0097 nM
koff [7]: 4.3e-06 s⁻¹
kon [7]: 440000 M⁻¹ s⁻¹
EC50 [8]: 0.6 nM
B2: 1.92b-4GS-1.62a (other)
chain: EVQLVESGGGLVKPGGSLRLSCAASGFTFSDESMTWMRQAPGKGLEWVSYISSGGGVKFYADSVKGRFTISRDNAKNSLYLQMNSLRAEDTAVYYCAREAPLRLGESPHDAFDISGQGTMVTVSSGGGGSGGGGSGGGGSGGGGSEVQLVESGGGVVRPGGSLRLSCAASGFTFDDYAMSWVRQAPGKGLEWVSGITWNAGSTGYADSVKGRFTISRDNAKNSLYLQMNSLRAEDTALYYCVRDKYSYAWSYDDFDIWGQGTMVTVSS
notes: Biparatopic VH-linker-VH; also called 1.92-4GS-1.62a; 1.92b-4gs-2.12a
